{
  "source": "the DeepSol protein solubility set",
  "data": [
    {"test": "soluble on expression in E. coli; label from the status in PepcDB or PDB records", "values": [
      {"sequence": "MTVRRTAAARRGRDRKAEIVFPAPGADRFGRGDEPSVAVIGGGIAGLAAATLMAERGARVTLYEKEDAVGGRLSGRRTTLADGSAVTMTRGFHAFFRQYYNLRGLLRRTDPGLDRLTPLPDYPLRHSGGLTDGFARVPRTPPLSAIGFVALSPTFGWRDLAAMDPRAALPLLDVRVPQVYERFDGVTATAFLESVRFPEAAHHLAFEVFSRSFFADPRRLSAAELLLMFHIYFLGSSEGLLFDVPVEPFPQALWNPLGDYLRRLGADVRTGTPVHGILPRADGGADVLTDTGADRHQAVVLALDTAGLRQTVAASPGLGTDTWRDGIAALRTAPPFLVSRLWLDRPVDADRPGFLGTSGYGGLDNVSVLERYEGEAARWAARTGGSVVELHAYAVDPAAEPKEVQDELVDRLHQAYPETREARVVDARHEWRADCPMFEVGSHRRRPTVRTPHPWLTLAGDGIRCDLPVALMERAATTGFLAANALLADRGVRGQVLWTVPRTGRSPVLRAFGAVAGHRSAPLEHHHHHH", "soluble on expression in E. coli": "not soluble"},
      {"sequence": "MTVVIGLTGGIASGKSTVSQMFRELSIPVIDADIIAREVVEKGKPAYNKIVEVFGTEVLQEDGELDRPKLGSVVFYNEEKRLQLNKIVHPAVREEMNRQKEMYIKEGMQAVVLDIPLLFESKLTSLVDRVLVVAVKPHTQLERLMKRNNFSEEEATARIQSQMPLEEKVKNADEVINNDGTIMGTKTQLQAILKKWNIID", "soluble on expression in E. coli": "not soluble"},
      {"sequence": "MTVWDRPEPPHRPVPLDRERIVAAAVALADEGGLTAVSVRKVAARLDAGPMRLYGFISTKDELFDLMVDAVYAEILPEERAGDWREALRVLAHRTRQAALRHPWLADLLGGRPALGPNGLAVAEATLAALDGLADVDTVMRAVETVSSYFTGAVRREIADLRAERATGLSKPEWQREHGPHLTRMLATGRYPALAKAVHDGTHVDAEESFATGLDWVLDAVAVRLARPPGS", "soluble on expression in E. coli": "not soluble"},
      {"sequence": "MTYAVEFDNVSRLYGDVRAVDGVSIAIKDGEFFSMLGPSGSGKTTCLRLIAGFEQLSGGAISIFGKPASNLPPWERDVNTVFQDYALFPHMSILDNVAYGLMVKGVNKKQRHAMAQEALEKVALGFVHQRKPSQLSGGQRQRVAIARALVNEPRVLLLDEPLGALDLKLREQMQLELKKLQQSLGITFIFVTHDQGEALSMSDRVAVFNNGRIEQVDSPRDLYMRPRTPFVAGFVGTSNVFDGLMAEKLCGMTGSFALRPEHIRLNTPGELQANGTIQAVQYQGAATRFELKLNGGEKLLVSQANMTGEELPATLTPGQQVMVSWSRDVMVPLVEER", "soluble on expression in E. coli": "not soluble"},
      {"sequence": "MTYDALHVFDWIKARSGDNPVYIWGHSLGTGVATNLVRRLCERETPPDALILESPFTNIREEAKSHPFSVIYRYFPGFDWFFLDPITSSGIKFANDENMKHISCPLLILHAEDDPVVPFHLGRKLYNIAAPSRSFRDFKVQFIPFHSDLGYRHKYIYKSPELPRILREFLGKSEPERQH", "soluble on expression in E. coli": "not soluble"},
      {"sequence": "MTYFIDVPTMSDLVHDIGVAPFIGELAAALRDDFKRWQAFDKSARVASHSEVGVIELMPVADKSRYAFKYVNGHPANTARNLHTVMAFGVLADVDSGYPVLLSELTIATALRTAATSLMAAQALARPNARKMALIGNGAQSEFQALAFHKHLGIEEIVAYDTDPLATAKLIANLKEYSGLTIRRASSVAEAVKGVDIITTVTADKAYATIITPDMLEPGMHLNAVGGDCPGKTELHADVLRNARVFVEYEPQTRIEGEIQQLPADFPVVDLWRVLRGETEGRQSDSQVTVFDSVGFALEDYTVLRYVLQQAEKRGMGTKIDLVPWVEDDPKDLFSHTRGRAGKRRIRRVA", "soluble on expression in E. coli": "soluble"},
      {"sequence": "MTYHLQGTTGYGLGDSGRETLDRVMARILGTEAALVRGQFVSGTHAIATALFGVLRPGDHFISVTGDPYDTLEEVIGIRGTGQGSLKDFGVSYDSVPLSEEGTIQHSLVSQGIKPNTKMLILQRSRGYAWRNSLPMEQIAAFVAYVREHFPHLIIFVDNCYGELVEKCEPGDVGADLMAGSLIKNLGGSLAPTGGYIAGRQELVEKAACRLTAPGIGGEVGATLSWQLQFFQGLFFSPLEHHHHHH", "soluble on expression in E. coli": "not soluble"},
      {"sequence": "MTYTSLKSPENQDYIYDLTIAHLYGNLMNTYGDNGNILMLKYVAEKLGARVTVDIVSINDTFEQDDYDIVFFGGGQDYEQSIVAKDLPSKKAALADYIANNKVVLAICGGFQLLGQYYVQANGVKIDGLGIMGHYTLNQHQNRFIGDIKIHNDEFNETYYGFENHQGRTFLSGDEKPLGRVVYGNGNNKEDQTEGVHYKNVYGSYFHGPILSRNVNLAYRLVTTALKKKYGSAISLPSYDDILKQEITEEYADLKSKASFNKV", "soluble on expression in E. coli": "not soluble"},
      {"sequence": "MTYVLAESPEFYQDNVTDYTGQISSSDITNIQAAIDDVKASEQKVIFVVFLSSFDGVDPETWTQQALQANGGGNVLIYALAPEERQYGIQGGTQWTDAELDAANNAAFQALSQEDWAGSALALAESVGSSSSSSLEHHHHHH", "soluble on expression in E. coli": "not soluble"},
      {"sequence": "MTYYNVGKIVNTQGLQGELRVLSVTDFADERFKKKSVLALFDDKDNYIMDVEVASHRKHKNFDIVKFKGLYHINDVEKYKGCSLKIAEENLTDLDDGEFYYHEIIGLDVYEGNTLIGQVKEILQPGANDVWVVKRKGKKDLLLPYIPPVVLDVDVAAGRIEVELMEGLDDEDLEHHHHHH", "soluble on expression in E. coli": "soluble"},
      {"sequence": "MVAAAVVGTAAVGTKAATDPRSVGTQVDDGTLEVRVNSALSKDEQIKKEARINVTAYQGKVLLVGQSPNAELSARAKQIAMGVDGANEVYNEIRQGQPIGLGEASNDTWITTKVRSQLLTSDLVKSSNVKVTTENGEVFLMGLVTEREAKAAADIASRVSGVKRVTTAFTFIKLEHHHHHH", "soluble on expression in E. coli": "not soluble"},
      {"sequence": "MVAASKEFVFHHTFKDVSQLEDGDFFKSPEEIHYNAEWFILVIRTKDQLEAYLHCDNEKDDNVAWTVDAEFSLKIASSSGSYAMKFQKGCFDGFGLGWNDFVSWDSLTEDFLYDNSFTIEACVKITKMTGFSKDVLRSFDESEKRFSDVILVVGDEKFYVLKLFLASHSSYFNALFLGKFKEADQSEVTLQNIDPTDFQSLLEVLYGEPAIDDGTIDGVLLLAHMLDVTLAIRKCEEFLIEKSMKSMRELLKMANQYQLENLKVKFYFLKIPEN", "soluble on expression in E. coli": "not soluble"},
      {"sequence": "MVAKIKKFSDSTLSVLNNGERRFYVYCLTDLKKDKILYIGKGCGNRIFEHEWVASRSQDPVSGEIIDRKLKAISKCKKLGRYIISYHLTEVEALAAESALIHFVKSVLGKKLKNKIAGHGPGGISVEELDRRFGFSSLPLNEINPDGLILAIKIHNAFDLDTDEELDYLFDNQDDANLKSRTLGNWVIGKDVASKVKYVIGVHTGLQNAVVSAYEVDGFETMVEETKNGRKQSRYRFRTTSRSEEVLAKLGLQQKCLPELKFGSGGEKAYIRPKTETETEQENIQTTPNPKIKKEKTKSLEHHHHHH", "soluble on expression in E. coli": "soluble"},
      {"sequence": "MVAQARRQGCGERLTTATAVATPATAEQGETTMETVEEFLAHSIKLEQEAALRFGQLADAMDSCGNKEVSKLFRQLADYSRMHQADAQARAGFRDIPQMEPGDFKWPGLESPEAAAIWGTDPFIGRDLALQIALEAETGAFDWYKNVLDTTDNPEIKMLAKEFVEEESGHVAELHRWIALHKAGKPLPMEIVPF", "soluble on expression in E. coli": "not soluble"},
      {"sequence": "MVCDEKRYAIREVAEITGVKPVTLRAWQRRYNLVQPDRTEKGHRLFTDQDIEMIRQIQSWLAKGVAIGKVGALLQSGVSESESIPQPVGQLEECETLLTALAALQRSKAEQIIATVLKEYPLSVMQAQFVQPVTEALERVKGPLRSLQIGLFRTLMLSKLAFILDAENKAAVKGKCLCISLDEAGSLNAWLWALAWAENGHQVTLLEAVDDIRGLLENPGLAQYQILALHAHRALPAAQQSALASLQQQFGEQCVLSNVLQQLQS", "soluble on expression in E. coli": "not soluble"},
      {"sequence": "MVCSRSVSLLFTLLVGVYASTATDPIDSISTQGADILNRAKLTGQTVRQCSCSEQRVCVEEMKLQAKDCTVPCFQKFSSITSRPNDLKKCFDEKDNILEDFLTCFENRVEACVNDQHGPQIQKTDIRGIFKVTEKSIATQTNTFQTMIKPIKHILDATGDFALCVKDCFLEKNKSGFCFDRKGCQPLVAETKARQSFRACTKKMHWKREAGELCECSVQAGVDSRELRQYCAMFKLMRRRAPMRKSRG", "soluble on expression in E. coli": "not soluble"},
      {"sequence": "MVDIPAGEWQTDACPGWKEGRVCPPEKYLRQTLQIAPFQLSATAVTFAQWDACVDDGGCQEPDTGWAYQTRPNQPPCQAGSPCNYPYDEGWGRGDRPVIHVSWNDAQRYVDWLSQKTGQRYRLPTSEEWEYAAAAGSHARFAWGTKLGKNRGNCNGCGSRWDGKKTAPVASFAPNRFGLYDMVGNVSEWVSTCVPIRSKPGEDNQTCMAYLYRGGAWSYDAKSVGIDTYHSIDADFRANYIGFRVARLEHHHHHH", "soluble on expression in E. coli": "not soluble"},
      {"sequence": "MVDNKVTQSNKLIESSHTLTLNEKRLVLCAASLIDSRKPLPKDGYLTIRADTFAEVFGIDVKHAYAALDDAATKLFNRDIRRYVKGKVVERMRWVFHVKYREGQGCVELGFSPTIIPHLTMLHKEFTSYQLK", "soluble on expression in E. coli": "soluble"},
      {"sequence": "MVDTISVLNPIHLDLSVDPQDNVRISARSTTSSSASTSSDSELMSPRAEELLRMQAELRATRTALAEKDKKMTQIQVTVDAEVQELTEKLFQEAYKMVNTAEARREKAGKLLTESRLEVEVLQAEVRALKELISAPGMGQNHFKQTTSPEHKSTLSKLFNGSSSSSKKQKDAANVSDKKKASSLPSTSTYTLTPSEDREQKEANAVEEIDPILFSEFEFWREAGHPTTSHPFIDRVTVEEVEPCMLFENSELSEEIMKAIRENRVQLEPLNELKPSVRICALTNASRFCPYRVRTGDEEQEWHYVSLIARNRVSYSTFLGLGTIDNFN", "soluble on expression in E. coli": "not soluble"},
      {"sequence": "MVEVVRNKRPPRGLVPRLRRALAALMEELGVGDKGVTVILTGDRRLRALKREWWGEAGKAYRKSVGPFGPGLPRPRAKCQPLIISTWRPHF", "soluble on expression in E. coli": "soluble"},
      {"sequence": "MVFGENQDLIRTHFQKEADKVRAMKTNWGLFTRTRMIAQSDYDFIVTYQQAENEAERSTVLSVFKEKAVYAFVHLMSQISKDDYVRYTLTLIDDMLREDVTRTIIFEDVAVLLKRSPFSFFMGLLHRQDQYIVHITFSILTKMAVFGNIKLSGDELDYCMGSLKEAMNRGTNNDYIVTAVRCMQTLFRFDPYRVSFVNINGYDSLTHALYSTRKCGFQIQYQIIFCMWLLTFNGHAAEVALSGNLIQTISGILGNCQKEKVIRIVVSTLRNLITSNQDVYMKKQAALQMIQNRIPTKLDHLENRKFTDVDLVEDMVYLQTELKKVVQVLTSFDEYENELRQGSLHWSPAHKCEVFWNENAHRLNDNRQELLKLLVAMLEKSNDPLVLCVAAHDIGEFVRYYPRGKLKVEQLGGKEAMMRLLTVKDPNVRYHALLAAQKLMINNWKDLGLEI", "soluble on expression in E. coli": "not soluble"},
      {"sequence": "MVFGPGLCIAHRGTIVVNKGARVGENCRIHACTNIGSGRDNIFLAPKIGNGVYIGPGAKIFGSVEIADNIAIGANSVVNRSFYERGISIAGVPAKKISNKGSDGMVIAATKTVSVPVSQETILEHHHHHH", "soluble on expression in E. coli": "not soluble"},
      {"sequence": "MVGHKYPVKCLEVDKSKGRLVVSHRRAMAERQMEHLKTGALVEGTVQGVKPYGVFVDVFGTSGLLHISQISHDQVANIQSLFLPGEKVKCMVVSFDKQRGRISLSTKALEPHPGDMLRNKQLVYEKAEEMALSYNQRMDSPVRSKNTTSSSTDDIIAGLDIGSLDDLDPILFGTHTNSSNSNTHSDHLKQDSMNGTIPESDI", "soluble on expression in E. coli": "not soluble"}
    ]}
  ]
}
